In patent publication US20250032605A1 (GENERAL HOSPITAL, published 2025):
Like-named read-outs stand apart in the source and are kept apart here.

Tests used:
Experiment in all cases: BLI with recombinant Fabs, drawn table of KD (µM)
[1] = biological target: T1, SARS-2 RBD (wild-type SARS-CoV-2 receptor binding domain, monomer) (SARS-CoV-2, UniProt P0DTC2 319-529)
RaTG13 [2] = biological target: RaTG13
[3] = biological target: T1, SARS-2 RBD (wild-type SARS-CoV-2 …); remark: listed apart in the source
RaTG13 [4] = biological target: RaTG13; remark: listed apart in the source
[5] = biological target: T2, SARS-1 RBD (SARS-CoV receptor binding domain, monomer) (SARS-CoV (SARS-1), UniProt P59594 306-515)
SHC014 [6] = biological target: SHC014
[7] = biological target: T3, WIV1 RBD (WIV1-CoV receptor binding domain, monomer) (WIV1-CoV)
[8] = biological target: T2, SARS-1 RBD (SARS-CoV receptor binding …); remark: listed apart in the source
SHC014 [9] = biological target: SHC014; remark: listed apart in the source
[10] = biological target: T3, WIV1 RBD (WIV1-CoV receptor binding …); remark: listed apart in the source

Binder	Kd [1]	Kd (RaTG13 [2])	Kd [3]	Kd (RaTG13 [4])	Kd [5]	Kd (SHC014 [6])	Kd [7]	Kd [8]	Kd (SHC014 [9])	Kd [10]
Ab15 Fab (Fab, V domains shown) VH: EVQLQQSGPELVKPGASVKISCKASGYSFTGYYMNWVKQSPEKSLEWIGEINPNFGGTTYNQKFKAKATLTVDKSSSTAYMQLKSLTSEDSAVYYCARYYGNLYAMDYWGQGTSVTVS VL: DILMTQSPSSMSVSLGDTVSITCHASQGISSNIGWLQQKPGKSFKGLIYHGTNLEDGVPSRFSGSGSGAAYSLTISSLESEDFADYYCVQYTHFPYTFGGGTKLEIK	1.1 µM	1.2 µM	1.1 µM	1.2 µM	–	–	–	–	–	–
Ab16 Fab (Fab, V domains shown) VH: EVQLQQSGPELVKPGASVKISCKASGYSFNNYYMNWVKQSPEKSLEWIGEINPNSGYTSYNQKFRAKATLTVDKSSTTAYMQLKSLTSEDSAVYYCARYFGNLFAMDFWGQGTSVTVS VL: DILMTQSPSSMSVSLGDTVSITCHASQGIGSNIGWLQQKPGKSFKGLIYLGTNLEDGVPSRFSGSGSGADYSLTISSLESEDFADYYCVQYVQFPYTFGGGTKLEIK	0.03 µM	0.2 µM	–	–	0.1 µM	0.09 µM	0.21 µM	–	–	–
Ab17 Fab (Fab, V domains shown) VH: EVQLQQSGPELVKPGASVKISCKASGYSFTDYYMNWVKQSPEKSLEWIGEINPNTGGTTYNQKFKAKATLTVDKSSSTAYMQLKSLTSEDSAVYYCARYYGNLYAMDYWGQGTSVTVSS VL: DILMTQSPSSMSVSLGDTVSITCHASQGISSNIGWLQQKPGKSFKGLIYHGTNLEDGVPSRFSGSGSGADYSLTISSLESEDFADYYCVQYVQFPYTLGGGTKLEIK	0.07 µM	0.18 µM	–	–	0.08 µM	0.09 µM	0.37 µM	–	–	–
Ab20 Fab (Fab, V domains shown) VH: EVQLQQSGPELVKPGASVKISCKASGFSFTGYSMNWMKQSPEKSLEWIGEINPTTGGTTYNQKFKAKATLTVDKSSSTAYIQLKSLTSEDSAVYYCARGRADYWGQGTTLTVSS VL: DIVLTQSPASLAVSLGQRATISCRASESVEYYGTGLVQWFQQKPGQPPKLLIYAASNVESGVPARFSGSGSGTDFSLNIHSVEEDDIAMYFCHQSRKLPWTFGGGTKLEIK	0.03 µM	> 100 µM	–	> 100 µM	> 100 µM	> 100 µM	> 100 µM	> 100 µM	> 100 µM	> 100 µM
Ab19 Fab (Fab, V domains shown) VH: QVQLQQSGAELARPGASVKLSCKASGYPFTSYGINWVKQRTGQGLEWIGEIYPRIGNTYYNEKFKGKATLTADKSSSTAYMEFRSLTSEDSAVYFCARSWNSNYGEYYFDYWGQGTTLTVS VL: DIVMTQSHKFMSTSIGDRVSITCKASHDVSTAVAWYQQKPGQSPKLLIYWASTRHTGVPDRFTGSGSGTDYTLTIRSVQAEDLALYYCQQHYSTPYTFGGGTKLEIK	2 µM	> 100 µM	2 µM	> 100 µM	> 100 µM	> 100 µM	> 100 µM	> 100 µM	> 100 µM	> 100 µM
